From PMC11476177

T1: His-TonEBP sNT (UniProt O94916 1-548)
T1 sequence: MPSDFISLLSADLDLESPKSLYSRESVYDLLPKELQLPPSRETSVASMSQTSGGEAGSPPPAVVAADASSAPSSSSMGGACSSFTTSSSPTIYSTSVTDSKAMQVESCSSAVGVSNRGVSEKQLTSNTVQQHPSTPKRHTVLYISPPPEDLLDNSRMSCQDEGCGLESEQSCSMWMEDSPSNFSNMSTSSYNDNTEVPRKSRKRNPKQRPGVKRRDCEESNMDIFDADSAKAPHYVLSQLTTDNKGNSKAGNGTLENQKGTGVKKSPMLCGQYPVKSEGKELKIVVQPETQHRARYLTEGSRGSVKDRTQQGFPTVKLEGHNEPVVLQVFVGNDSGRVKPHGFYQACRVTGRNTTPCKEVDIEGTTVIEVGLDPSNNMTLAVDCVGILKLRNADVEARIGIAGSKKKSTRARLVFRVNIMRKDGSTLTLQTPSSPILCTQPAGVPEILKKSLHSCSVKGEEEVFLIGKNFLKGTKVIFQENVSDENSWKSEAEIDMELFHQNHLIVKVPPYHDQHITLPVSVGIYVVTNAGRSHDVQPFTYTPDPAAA

B1: Probe IRF3/p65 (dsDNA)
DNA 1: ATAGGAAAACTGAAAGGGAGAAGTGAAAGTGGGAAATTCC
DNA 2: GGAATTTCCCACTTTCACTTCTCCCTTTCAGTTTTCCTAT
B2: Probe p65 (dsDNA)
DNA 1: AATGTAAGTGGGAAATTCCTCTGAATA
DNA 2: TATTCAGAGGAATTTCCCACTTACATT

What was measured:
His-p65 = His-p65 (UniProt Q04206); experiment: SPR; conditions: SPR: 10 mM HEPES, 150 mM NaCl, 3 mM EDTA, 0.05% P20, pH not stated, room temp, EMSA: 10 mM Tris-HCl pH 7.5, 10 mM NaCl, 40 mM KCl, 1 mM MgCl2, 1 mM EDTA
His-p65, sequence (Q04206 whole entry): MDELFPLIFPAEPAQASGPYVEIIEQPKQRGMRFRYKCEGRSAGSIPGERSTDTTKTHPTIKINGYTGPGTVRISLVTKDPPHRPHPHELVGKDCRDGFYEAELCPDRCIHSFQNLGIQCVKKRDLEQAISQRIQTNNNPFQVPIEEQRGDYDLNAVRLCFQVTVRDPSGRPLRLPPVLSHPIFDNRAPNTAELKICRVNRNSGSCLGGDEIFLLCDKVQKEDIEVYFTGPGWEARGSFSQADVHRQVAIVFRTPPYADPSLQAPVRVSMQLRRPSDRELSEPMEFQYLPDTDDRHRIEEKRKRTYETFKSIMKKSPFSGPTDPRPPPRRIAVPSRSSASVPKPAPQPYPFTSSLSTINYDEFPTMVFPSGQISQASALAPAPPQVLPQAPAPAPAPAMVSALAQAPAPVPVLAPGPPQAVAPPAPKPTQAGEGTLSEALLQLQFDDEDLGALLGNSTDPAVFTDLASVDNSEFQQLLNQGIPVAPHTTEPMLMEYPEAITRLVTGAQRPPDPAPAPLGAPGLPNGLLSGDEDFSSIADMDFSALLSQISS

His-TonEBP sNT = molecular target: T1, His-TonEBP sNT; experiment: SPR; SPR: 10 mM HEPES, 150 mM NaCl, 3 mM EDTA, 0.05% P20, pH not stated, room temp; EMSA: 10 mM Tris-HCl pH 7.5, 10 mM NaCl, 40 mM KCl, 1 mM MgCl2, 1 mM EDTA, 1 mM DTT, 50 ug/mL BSA, 100 nM probe, 25 min room temp, 0.8% agarose; conditions: protein: recombinant; tags: N-terminal His; chain copies: 2; label: biotin (SPR), 5' end of strand 1 as printed; text says dsDNA, only one strand given

Row | Molecule | Kd (His-p65) | Kd (His-TonEBP sNT)
1 | AATGTAAGTGGGAAATTCCTCTGAATA (double strand) [Probe p65] | 35.2 nM | 
2 | ATAGGAAAACTGAAAGGGAGAAGTGAAAGTGGGAAATTCC (double strand) [Probe IRF3/p65] | 11.5 nM | 
3 | B1 |  | 31.3 nM
4 | B2 |  | 84.7 nM
